In US10654925B2, “Anti-marinobufagenin antibodies and uses thereof” (priority 2018, dated 2020):
Marks after values point to notes of the source that are not given here.

Legend:
human CTB cells = type: cell-based
[1] = tested on: pregnant Sprague-Dawley rats; assay: DOCA/saline rat model of pre-eclampsia; type: in vivo; details: antibodies 2.2 mg/kg/d i.p. days 16-18 in PDS rats
Method: Female Sprague-Dawley rats (200-250 g, Charles River Laboratories) were acclimatized for 1 week, and mated with male Sprague-Dawley rats (275-300 g). Pregnancy was confirmed by the presence of vaginal plugs or by examination of vaginal smears. Each rat was housed separately.
Five groups of rats were studied (n=10 per group): Group 1 (NP): normal pregnant rats; Group 2 (PDS): pregnant rats injected i.p. initially with 12.5 mg of DOCA in a depot form, followed by a weekly i.p. injection of 6.5 mg of DOCA, and whose drinking water is replaced with 0.9% saline; Group 3 (NPM): Normal pregnant rats given daily injections of MBG (7.65 μg per kg body weight per day) once pregnancy was established on day four of the experiment; Group 4 (PDS-3E9): rats administered DOCA and saline as for Group 2, and also given the murine anti-MBG antibody 3E9 (2.2 mg per kg body weight per day) on days 16, 17, and 18 of pregnancy; and Group 5 (PDS-H3L2): rats administered DOCA and saline as for Group 2, and also given the humanized anti-MBG antibody H3L2 (2.2 mg per kg body weight per day) on days 16, 17, and 18 of pregnancy.
Systolic blood pressure (BP) was measured by tail cuff at days 17-19. At least 3 readings are taken after BP has stabilized, and the mean of these values was calculated. The reported BP values are the mean of the daily measurements. At 18-20 days of pregnancy, 24-hour urine was collected in the absence of food to avoid contamination of the measurement of the protein amount in urine by any fallen food particles. Each rat was housed separately in a metabolic cage during this portion of the study. The 24-hour protein excretion was measured and was normalized to creatinine. The rats were sacrificed after the last measurement on days 18-20, and blood samples were taken. The number of fetal pups was counted and examined. The mean number of pups and any developmental or histological abnormalities in the pups were assessed. Statistical analysis was performed using analysis of variance and Tukey's post hoc test. A p value ≤0.05 was considered statistically significant.

Na^+K^+-ATPase (NKA) = assay: Na^+K^+-ATPase activity (Malachite Green Phosphate Assay); type: biochemical, rat; details: NKA from rat heart (SLP fraction); Pi read as OD 630 nm; FIG. 4
Method: Na^+K^+-ATPase (NKA) was purified from rat heart. The NKA was collected as the sarcolemmal/particulate (SLP) fraction and frozen.
Na^+K^+-ATPase activity was measured as follows: aliquots of SLP were mixed with Reaction Buffer (200 mM Tris-HCl, pH 7.5, 200 mM NaCL, 30 mM MgCl2, 60 mM KCl, 10 mM EGTA, 100 μg/mL PMSF, 2 μg/mL pepstatin A, and 2 μg/mL aprotinin). Reactions were performed with or without MBG and with or without anti-MBG antibodies (1-100 μg/mL). Ouabain was used as positive control for NKA inhibition. Tubes were prewarmed, and ATP was added. Reactions were stopped and were placed on ice.
Phosphate was assayed using the Malachite Green Phosphate Assay. Phosphate standard or sample was added to each well of a 96-well plate, followed by Reagent A. Reagent B was added, with mixing and incubation. OD was then read at 630 nm in a microplate spectrophotometer.

[2] = tested on: pregnant Sprague-Dawley rats; assay: DOCA/saline rat model of pre-eclampsia; type: in vivo; details: tail cuff; baseline; antibodies 2.2 mg/kg/d i.p. days 16-18 in PDS (DOCA/saline) rats; MBG 7.65 μg/kg/d in normal pregnant rats (NPM); N = 10
[3] = tested on: PKC-δ in the nucleus of primary rat cardiac fibroblasts; assay: Inhibition of MBG-induced PKC-δ nuclear translocation (Western blot); details: for amount of PKC-δ in the nucleus, MBG plus antibody: MBG 2 nM, nuclei isolated 30 min later, FIG. 2a
Method: MBG was incubated with an anti-MBG antibody prior to addition to cultured primary rat cardiac fibroblasts. Nuclei were isolated 30 min later and analyzed for amount of PKC-6.

[4] = ELISA avidity estimate on MBG-BSA; type: binding; details: wells coated with 2 μg/ml MBG-BSA; IgG
Method: (§1) The avidity of anti-MBG antibodies for MBG was estimated in an ELISA. Wells of a microtiter plate were coated with 2 μg/ml of either MBG-bovine serum albumin (BSA) or MBG-keyhole limpet hemocyanin (KLH). The wells were then blocked with 1% BSA. A test IgG antibody at varying concentrations (typically from about 0.0001 nM to about 25 nM) was added to the wells. The test IgG bound to immobilized MBG was detected with an anti-human Fc, horseradish peroxidase (HRP)-conjugated secondary antibody (Jackson ImmunoResearch). After washing of the wells, an appropriate HRP reagent (e.g., TMB ultra, Thermo Fisher) was added to the wells. Optical density (OD) at 450 nm was measured by a microplate reader. The concentration of test antibody at the midpoint of the binding curve is an estimate of avidity for MBG.

[5] = ELISA avidity estimate on MBG-KLH; type: binding; details: wells coated with 2 μg/ml MBG-KLH; IgG
Method: as §1

[6] = Competitive ELISA, relative CTS specificity, free MBG as competitor; type: binding; details: competition with immobilized MBG-BSA; normalized to MBG = 100%
Method: (§2) The specificity (relative affinity) of anti-MBG antibodies for MBG relative to various cardiotonic steroids (CTSs) was determined in a competitive ELISA. Each anti-MBG antibody was tested for its binding to immobilized MBG in the presence of free MBG, resibufogenin (RBG), cinobufagin (CINO), ouabain (OUB) or digoxin (DIG) as a competitor. A constant amount of an anti-MBG antibody (typically 1-5 μg/mL) and varying concentrations of each CTS (from 10^−12M to 10^−5M) were pre-incubated before being added to the MBG-BSA-coated wells. After washing of the wells, an anti-human Fc, HRP-conjugated secondary antibody (at 1:5000 dilution) was added to the wells and incubated at 37° C. for 1 hr. After washing of the wells, an appropriate HRP reagent (e.g., TMB ultra, Thermo Fisher) was added to the wells. OD at 450 nm was measured by a microplate reader. MBG at 10 μM was assumed to be 100% competed, and MBG at 1 pM was assumed to be 0% competed. The data was plotted as a titration of antibody-antigen binding relative to free CTS concentration in the competition reaction to determine the free CTS concentration (μM) giving 50% maximal binding of antibody to immobilized MBG. The relative specificity of an antibody for a CTS was normalized to MBG=100%.

[7] = Competitive ELISA, relative CTS specificity, RBG as competitor; type: binding; details: competition with immobilized MBG-BSA; normalized to MBG = 100%
Method: as §2

[8] = Competitive ELISA, relative CTS specificity, CINO as competitor; type: binding; details: competition with immobilized MBG-BSA; normalized to MBG = 100%
Method: as §2

[9] = Competitive ELISA, relative CTS specificity, OUB as competitor; type: binding; details: competition with immobilized MBG-BSA; normalized to MBG = 100%
Method: as §2

[10] = Competitive ELISA, relative CTS specificity, DIG as competitor; type: binding; details: competition with immobilized MBG-BSA; normalized to MBG = 100%
Method: as §2

[11] = Competitive ELISA, free CTS competitors overall (summary and footnote); type: binding; details: competitors RBG, CINO, OUB, DIG; Table 2
Method: as §2

[12] = tested on: human umbilical cord venous endothelial cells (HUVEC); assay: Reversal of MBG inhibition of HUVEC cell proliferation (3H-thymidine); type: cell-based; details: MBG 2 nM, antibody 20 μg/mL, 48 hr; FIG. 3a
Method: MBG (2 nM) was incubated with an antibody (20 μg/mL in FIG. 3a with human anti-MBG mAbs, or varying concentrations (2.5-10 μg/mL) in FIG. 3b with humanized anti-MBG mAbs) prior to addition to cultured human umbilical cord venous endothelial cells (HUVEC). After 48 hr, DNA synthesis was assessed by incorporation of ^3H-thymidine.
HUVEC cells in endothelial cell growth medium were plated onto 96-well plates. The next day, the cells were pretreated with various antibodies (2.5-20 μg/mL) and then incubated with 2 nM MBG for 48 hr. [^3H]-Thymidine was added to each well. [^3H]-Thymidine-labeled DNA was assayed by harvesting the cells and assaying for ^3H using a PerkinElmer Wallac Tailux liquid scintillation counter. […] Means were tested for significance using Student's t-test.

Row | Molecule | inhibition of NKA activity (Na^+K^+-ATPase (NKA)) | Estimated avidity (KA) (antibody concentration at 50% maximal binding to antigen, or EC50), Antigen 1 (MBG-BSA) [4] [nM] | Estimated avidity (KA) (antibody concentration at 50% maximal binding to antigen, or EC50), Antigen 2 (MBG-KLH) [5] [nM] | Rel. CTS Specificity as % of MBG Binding: MBG [6] [%] | Rel. CTS Specificity as % of MBG Binding: RBG [7] [%] | Rel. CTS Specificity as % of MBG Binding: CINO [8] [%] | Rel. CTS Specificity as % of MBG Binding: OUB [9] [%] | Rel. CTS Specificity as % of MBG Binding: DIG [10] [%] | reaction with CTS competitor molecules [11] | MBG inhibition of HUVEC cell proliferation, human mAbs [12] | amount of PKC-δ in the nucleus, MBG plus antibody [3] | other results
1 | C[C@]12CC[C@H](O)C[C@@]1(O)CC[C@@H]1[C@@H]2CC[C@]2(C)[C@@H](c3ccc(=O)oc3)C[C@H]3O[C@]132 [MBG, marinobufagenin] | inhibit the NKA activity significantly |  |  |  |  |  |  |  |  |  |  | PCNA expression, MBG compared to vehicle (DMSO) (human CTB cells): significantly downregulated; phosphorylation of p38 MAPK, MBG compared to vehicle (DMSO) (human CTB cells): increased; secretion of P1GF, MBG compared to vehicle (DMSO) (human CTB cells): significantly reduced; secretion of VEGF, MBG compared to vehicle (DMSO) (human CTB cells): significantly reduced; secretion of sEng, MBG compared to vehicle (DMSO) (human CTB cells): significantly increased; secretion of sFlt1, MBG compared to vehicle (DMSO) (human CTB cells): significantly increased; % Malformed Pups ([1]; MBG 7.65 μg/kg/d in NPM rats): 18 * %; No. Pups ([1]; MBG 7.65 μg/kg/d in NPM rats): 9.5 ± 1.3; Urine Protein ([1]; normalized to creatinine, 18-20 days of pregnancy, MBG 7.65 μg/kg/d in NPM rats): 6.4 ± 1.8 mg/24 h; Blood Pressure-Final ([1]; tail cuff, 17-19 d of gestation, MBG 7.65 μg/kg/d in normal pregnant rats (NPM), N = 10): 137 ± 5 mm Hg; Blood Pressure-Initial [2]: 104 ± 4 mm Hg; amount of PKC-δ in the nucleus, MBG alone compared to Control (vehicle) ([3]; MBG at 2 nM): induced an increase
2 | C[C@@H]1O[C@@H](O[C@H]2C[C@@H](O)[C@]3(CO)[C@H]4[C@H](O)C[C@]5(C)[C@@H](C6=CC(=O)OC6)CC[C@]5(O)[C@@H]4CC[C@]3(O)C2)[C@H](O)[C@H](O)[C@H]1O [Ouabain, ouabain] | inhibit the NKA activity significantly |  |  |  |  |  |  |  |  |  |  | 
3 | 236/237: human anti-MBG antibody, VH SEQ ID NO: 14, VL SEQ ID NO: 15 (antibody, listed as Homo sapiens, V domains shown) VH: QVQLQESGPGLVKPSETLSLTCTVSGGSISSSSYYWGWIRQPPGKGLEWIGSIYYSGSTYYNPSLKSRVTISVDTSKNQFSLKLSSVTAADTAVYYCARARYNWNYVLFDYWGQGTLVTVSS VL: QAVLTQPSSVSAAPRQRVTISCSGSASNIGRNGVSWYHQVPGKAPRLLLSHDGLVTSGVPDRLSVSKSGTSASLAISGLHSDDEGDYYCAVWDDSLNAVVFGGGTKLTVLS |  | 0.12 | 0.14 | 100 | 0 | 0 | 0 | 0 | did not react with any of the CTS competitor molecules | significantly reduced | reduced | 
4 | 206/208: human anti-MBG antibody, VH SEQ ID NO: 36, VL SEQ ID NO: 37 (antibody, listed as Homo sapiens, V domains shown) VH: QVQLQESGPGLVKPSETLSLTCTVSGGSISSSSYYWGWIRQPPGKGLEWIGSIYYSGSTYYNPSLKSRVTISVDTSKNQFSLKLSSVTAADTAVYYCARVNLRGAFDIWGQGTTVTVSS VL: QSVVTQPPSVSGAPGQRVTISCTGSSSNIGAGYDVHWYQQLPGTAPKLLIYENNKRPSGIPDRFSGSKSGTSATLGITGLQTGDEADYYCGTWDSSLSAVVFGGGTKLTVL |  | 1.35 | 0.20 | 100 | 20 | 0 | 0 | 0 | reacted with CTS competitor RBG |  | reduced | 
5 | 201/202: human anti-MBG antibody, VH SEQ ID NO: 22, VL SEQ ID NO: 23 (antibody, listed as Homo sapiens, V domains shown) VH: QLQLQESGPGLVKPSQTLSLTCTVSGGSISSGGYYWGWIRQPPGKGLEWIGSIYYSGNTYYNPSLKSRVTISVDTSKNQFSLKLSSVTAADTAVYYCARASIAARTFDYWGQGTLVTVSS VL: QSVLTQPPSVSAAPGQKVTISCSGSSSNIGNNYVSWYQQLPGTAPKLLIYDNNKRPSGIPDRFSGSKSGTSATLGITGLQTGDEADYYCGTWDSSLSAYVFGTGTKVTVL |  | 0.33 | 0.20 | 100 | 50 | 20 | 0 | 0 | reacted with the CTS competitors RBG and CINO | significantly reduced | reduced | 
